Source: patent US20230256092A1, “COMBINED USE OF ANTI-CCR8 ANTIBODY AND CHEMOTHERAPEUTIC AGENT” (Shionogi & Co., Ltd., priority 2020, published 2023)
Positions count from the first letter of the chain named. Numbers in names are those of the source. Each block holds one molecule with its values, some of them ahead of it.

Key:
human CCR8 = biological target: T1, human CCR8 (Homo sapiens, UniProt P51685); assay: Neutralizing activity: inhibition of Ca2+ influx by 200 nM hCCL1 in human CCR8 expressing 293 cells (FLIPR), Test Example 6; format: cell-based; settings: Table 9; WT IC50/mutant IC50; humanized 10A11 heavy chain CDR mutants, IGKV4-1/IGHV3-73
T1 construct: expressed in transfected cells; host or cells: 293 cells
Experimental: The antibody dilution diluted with a medium was added to human CCR8 expressing 293 cells in which a Ca^2+ indicator was incorporated beforehand, and Ca^2+ influx by addition of 200 nM hCCL1 (manufactured by BioLegend) was measured with FLIPR. […] The evaluation was performed at least three times, and IC50 was expressed as average±SD.

[1] = tested on: colon cancer-derived Colon26 cells; assay: Example 11: hCCR8-KI (KI/KI) mice inoculated with Colon26 cells, oxaliplatin combination (Part 2); format: in vivo, mouse; settings: as Example 6; 2-7B part: oxaliplatin 10, 14, 17 days, antibody 14, 17 days; 19D7 part: oxaliplatin 10, 14 days, antibody 14 days; combinations from 10 days; Student's T one-sided
Experimental: The back of each hCCR8-KI (KI/KI) mouse (12 weeks old, female) prepared in Test Example 10 was intracutaneously inoculated with 3.5×10^5 colon cancer-derived Colon26 cells (50 uL).
To an oxaliplatin single administration group, saline was intravenously administered 5 days after tumor inoculation, and oxaliplatin (trade name: ELPLAT, Yakult Honsha Company, Limited) at 5 mg/kg body weight was intravenously administered 3 hours after the administration of the saline (N=10). To an anti-mouse CCR8 antibody and oxaliplatin combined administration group, an anti-human CCR8 antibody at 15 mg/kg body weight was intravenously administered 5 days after tumor inoculation, and oxaliplatin at 5 mg/kg body weight was intravenously administered 3 hours after the administration of the anti-mouse CCR8 antibody (N=10). To a control group, saline was intravenously administered 5 days after tumor inoculation, and saline was intravenously administered 3 hours after the administration of the saline (N=10). […] Tumor volumes were measured every 1 to 3 days from 4 days after tumor inoculation (a day before antibody administration). The tumor volume (mm^3) was measured in long diameter (mm)×short diameter (mm)×short diameter (mm)/2, and a significant difference test based on a Mann-Whitney U method (significance level: P<0.05) was conducted. […]

human CCR4 = biological target: T2, human CCR4 (Homo sapiens, UniProt P51679); assay: Antigen-binding test on transiently expressing Expi293 cells; parameters: key: an antibody having significantly reduced binding activity was indicated as A; an antibody having binding activity of the detection limit or less was indicated as x; The blank column means that it exhibits the same binding activity as the wild-type human CCR8 (hCCR8); settings: 5, 0.5 and 0.05 ug/mL, in comparison to wild-type hCCR8
T2 construct: expressed in transfected cells; host or cells: Expi293 cells, pcDNA 3.4 vector, transient
T2 sequence (P51679 1-360): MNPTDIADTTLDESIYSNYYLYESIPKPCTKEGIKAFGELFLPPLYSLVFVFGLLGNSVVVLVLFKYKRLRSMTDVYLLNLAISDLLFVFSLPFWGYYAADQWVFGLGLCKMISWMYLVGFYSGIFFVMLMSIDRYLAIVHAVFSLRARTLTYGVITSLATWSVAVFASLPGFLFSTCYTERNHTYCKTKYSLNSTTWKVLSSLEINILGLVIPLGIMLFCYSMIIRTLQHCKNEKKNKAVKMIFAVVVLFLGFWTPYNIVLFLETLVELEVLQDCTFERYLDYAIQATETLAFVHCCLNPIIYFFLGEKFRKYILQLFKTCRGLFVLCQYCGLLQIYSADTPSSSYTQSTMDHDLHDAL
From the text: (§1) The gene encoding the full length of human CCR8 (UniProtKB/Swiss-Prot: P51685, SEQ ID NO: 1), the gene encoding the full length of human CCR4 (UniProtKB/Swiss-Prot: P51679, SEQ ID NO: 48) and the gene encoding the full length of mouse CCR8 (UniProtKB/Swiss-Prot: P56484, SEQ ID NO: 39) were cloned into pcDNA 3.4 vectors, respectively. These vectors were used for transfection to produce Expi293 cells transiently expressing human CCR8, human CCR4, or mouse CCR8. These cells were reacted with a dilution series of the purified antibodies of each clone, and the binding properties thereof were evaluated by detection with Alexa488-labeled anti-mouse IgG antibody (manufactured by Thermo Fisher Scientific). As a result, every antibody bound to human CCR8, but not to human CCR4 and mouse CCR8 at all.

mouse CCR8 = biological target: T3, mouse CCR8 (Mus musculus, UniProt P56484); assay: as above; parameters: key: an antibody having significantly reduced binding activity was indicated as A; an antibody having binding activity of the detection limit or less was indicated as x; The blank column means that it exhibits the same binding activity as the wild-type human CCR8 (hCCR8); settings: 5, 0.5 and 0.05 ug/mL, in comparison to wild-type hCCR8
T3 construct: expressed in transfected cells; host or cells: Expi293 cells, pcDNA 3.4 vector, transient
T3 sequence (P56484 1-353): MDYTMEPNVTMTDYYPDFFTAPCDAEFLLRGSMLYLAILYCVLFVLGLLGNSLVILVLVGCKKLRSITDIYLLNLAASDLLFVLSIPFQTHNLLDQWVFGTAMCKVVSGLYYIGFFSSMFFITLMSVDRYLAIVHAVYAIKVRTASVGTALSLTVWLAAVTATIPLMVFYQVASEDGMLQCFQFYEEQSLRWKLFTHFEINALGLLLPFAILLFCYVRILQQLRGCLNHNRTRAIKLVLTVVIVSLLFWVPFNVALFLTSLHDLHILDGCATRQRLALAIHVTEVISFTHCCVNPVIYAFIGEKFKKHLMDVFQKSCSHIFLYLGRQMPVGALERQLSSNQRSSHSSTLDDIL
From the text: as §1

loop1 hCCR4-hCCR8 = biological target: T4, loop1 hCCR4-hCCR8 (Homo sapiens, UniProt P51685, L95A/L96A/M105L/T103L/V104G); assay: Antigen-binding test, chimera; settings: 5, 0.5 and 0.05 ug/mL, in comparison to wild-type hCCR8
T4 construct: expressed in transfected cells; host or cells: Expi293 cells (method similar to that for the wild type)

loop2 hCCR4-hCCR8 = biological target: T5, loop2 hCCR4-hCCR8 (Homo sapiens, UniProt P51685, A175Y/D178R/F186K/F197L/F200L/G179N/I196V/K193T/K201E/L181T/L192T/M202I/N188S/N199S/Q173T/Q182Y/Q189L/Q190N/S176T/S185T/T191S/T198S/V174C/V180H/Y172S/Y184K); assay: Antigen-binding test, chimera; settings: 5, 0.5 and 0.05 ug/mL, in comparison to wild-type hCCR8
T5 construct: expressed in transfected cells; host or cells: Expi293 cells (method similar to that for the wild type)

hCCR8 (L5A) = biological target: T6, hCCR8 (L5A) (Homo sapiens, UniProt P51685, L5A); assay: Antigen-binding test, human CCR8 point mutant; settings: in comparison to wild-type hCCR8
T6 construct: expressed in transfected cells; host or cells: Expi293 cells (method similar to that for the wild type)

hCCR8 (T11A) = biological target: T7, hCCR8 (T11A) (Homo sapiens, UniProt P51685, T11A); assay: Antigen-binding test, human CCR8 point mutant; settings: in comparison to wild-type hCCR8
T7 construct: expressed in transfected cells; host or cells: Expi293 cells (method similar to that for the wild type)
From the text: (§2) Further, to analyze in more detail the N-terminal region that is an epitope region common to all clones having strong neutralization, the human CCR8 point mutants shown in Table 2 were produced. […] It is thus considered that the neutralizing antibodies recognize Y at position 17. In addition, although clone No. 8F7 is only shown in Table 2, plural other neutralizing antibodies had reduced binding activity to the mutant in which I at position 20 of human CCR8 is substituted with A (hCCR8 (I20A)). It is thus considered that some neutralizing antibodies have stereo-structural recognition to bind to isoleucine at position 20.

hCCR8 (K35A) = biological target: T8, hCCR8 (K35A) (Homo sapiens, UniProt P51685, K35A); assay: Antigen-binding test, human CCR8 point mutant; parameters: key: an antibody having significantly reduced binding activity was indicated as A; an antibody having binding activity of the detection limit or less was indicated as x; The blank column means that it exhibits the same binding activity as the wild-type human CCR8 (hCCR8); settings: in comparison to wild-type hCCR8
T8 construct: expressed in transfected cells; host or cells: Expi293 cells (method similar to that for the wild type)
From the text: as §2

hCCR8 (I20A) = biological target: T9, hCCR8 (I20A) (Homo sapiens, UniProt P51685, I20A); assay: Antigen-binding test, human CCR8 point mutant; settings: in comparison to wild-type hCCR8
T9 construct: expressed in transfected cells; host or cells: Expi293 cells (method similar to that for the wild type)
From the text: as §2

hCCR8 (I30A) = biological target: T10, hCCR8 (I30A) (Homo sapiens, UniProt P51685, I30A); assay: Antigen-binding test, human CCR8 point mutant; settings: in comparison to wild-type hCCR8
T10 construct: expressed in transfected cells; host or cells: Expi293 cells (method similar to that for the wild type)
From the text: as §2

B1: h10A11 (IGKV4-1/IGHV3-73 D101E): humanized 10A11 heavy chain CDR point mutant (antibody, V domains shown)
VL: DIVMTQSPDSLAVSLGERATINCRSSKSLLHSNGNTYLYWYQQKPGQPPKLLIYRMSNLASGVPDRFSGSGSGTDFTLTISSLQAEDVAVYYCMQHLEYPLTFGQGTKLEIKRT
VH: EVQLVESGGGLVQPGGSLKLSCAASGFAFNTYALYWVRQASGKGLEWVGRIRSKSNNYATYYADSVKDRFTISRDDSKNTAYLQMNSLKTEDTAVYYCTRARFYYSDYGYAMEYWGQGTLVTVSS
IC50 ratio (human CCR8): n.d. (The n.d. (=not detectable) indicates that the IC50 value of the mutant is 10 nM or more)

B3: h10A11 (IGKV4-1/IGHV3-73 A33V): humanized 10A11 heavy chain CDR point mutant (antibody, V domains shown)
VL: B1 VL
VH: B1 VH with A33V, E113D
IC50 ratio (human CCR8): n.d. (The n.d. (=not detectable) indicates that the IC50 value of the mutant is 10 nM or more)

B5: h10A11 (IGKV4-1/IGHV3-73 Y35F): humanized 10A11 heavy chain CDR point mutant (antibody, V domains shown)
VL: B1 VL
VH: B1 VH with Y35F, E113D
IC50 ratio (human CCR8): n.d. (The n.d. (=not detectable) indicates that the IC50 value of the mutant is 10 nM or more)

B8: 2-7B: rat anti-human CCR8 antibody; light chain SEQ ID NO: 37, heavy chain SEQ ID NO: 38 (antibody, V domains shown)
VH: EVQLVESDGGLVQPGRSLKLSCAASGFTFSDYYMAWVRQAPTKGLEWVATITYDVYSTYYRDSVKGRFTISRDNAKSTLYLQMDSLRSEDTATYYCARHGGDGYNSGNWFAYWGQGTLVTVSS
VL: DIVLTQSPALAVSLGQRATISCRASQSVSISRYNIMHWYQQKPGQQPKLLIYRASNLASGIPARFSGSGSGTDFTLTINPVQADDIATYYCQQSRESPPTFGGGTKLELKR
modifications: 2-7B VH; 2-7B VL
tumor volume as compared to the control group [1]: no significant decrease

B9: 2C7: mouse anti-human CCR8 neutralizing antibody; light chain SEQ ID NO: 35, heavy chain SEQ ID NO: 36 (antibody, V domains shown)
VH: QVQLKQSGPSLVQPSQSLSITCTVSGFSLTAYGVHWIRQSPGKGQEWLGVIWRGGSTDYNAAFMSRLTITKDNSKSQVFFKMNSLQADDTAIYYCAKKGGSYAMDYWGQGTSVTVSS
VL: DVVLTQTPLSLPVSLGGQASISCRSSQSLVHSNGNTYLHWYLQKPGQSPKLLIYKVSNRFSGVPDRFSGSGSGTDFTLKISRVEAEDLGVYFCSQSTQVPLTFGAGTKLELKR
modifications: 2C7 VH; 2C7 VL
binding activity, hCCR4 (human CCR4): x
binding activity, mCCR8 (mouse CCR8): x

B10: 1H4: mouse anti-human CCR8 neutralizing antibody; light chain SEQ ID NO: 29, heavy chain SEQ ID NO: 30 (antibody, V domains shown)
VH: EVQLVESGGRLVQPKGSLKLSCAASGFTFNTYAMYWIRQAPGKGLEWVARIRSKSNNYATYYADSVKDRFTISRDDSQSMLYLQMNNLKTEDTAMYYCVRARFYYSDYGYAMDYWGQGTSVTVSS
VL: DIVMTQAAPSVPVTPGESVSISCRSSKSLLHSNGNTYLYWFLQRPGQSPQLLIYRMSNLASGVPDRFSASGSGTAFTLRISRVEAEDVGVYYCMQHLEYPLTFGAGTKLELKR
modifications: 1H4 VH; 1H4 VL
binding activity, hCCR4 (human CCR4): x
binding activity, mCCR8 (mouse CCR8): x
binding activity, loop1 hCCR4-hCCR8 (loop1 hCCR4-hCCR8): Δ
binding activity, loop2 hCCR4-hCCR8 (loop2 hCCR4-hCCR8): Δ
binding activity, hCCR8 (L5A) (hCCR8 (L5A)): Δ
binding activity, hCCR8 (T11A) (hCCR8 (T11A)): Δ
binding activity, hCCR8 (K35A) (hCCR8 (K35A)): x

Second part, the molecule after the results:

IC50 ratio (human CCR8): 0.99
B2: h10A11 (IGKV4-1/IGHV3-73 Y102F): humanized 10A11 heavy chain CDR point mutant (antibody, V domains shown)
VL: B1 VL
VH: B1 VH with E113D, Y114F

IC50 ratio (human CCR8): 0.17
B4: h10A11 (IGKV4-1/IGHV3-73 T31A): humanized 10A11 heavy chain CDR point mutant (antibody, V domains shown)
VL: B1 VL
VH: B1 VH with T31A, E113D

IC50 ratio (human CCR8): 0.43
B6: h10A11 (IGKV4-1/IGHV3-73 L34I): humanized 10A11 heavy chain CDR point mutant (antibody, V domains shown)
VL: B1 VL
VH: B1 VH with L34I, E113D

IC50 ratio (human CCR8): 0.44
B7: h10A11 (IGKV4-1/IGHV3-73 Y32F): humanized 10A11 heavy chain CDR point mutant (antibody, V domains shown)
VL: B1 VL
VH: B1 VH with Y32F, E113D

binding activity, hCCR4 (human CCR4): x
binding activity, mCCR8 (mouse CCR8): x
binding activity, loop2 hCCR4-hCCR8 (loop2 hCCR4-hCCR8): Δ
binding activity, hCCR8 (I20A) (hCCR8 (I20A)): Δ
binding activity, hCCR8 (I30A) (hCCR8 (I30A)): Δ
binding activity, hCCR8 (K35A) (hCCR8 (K35A)): Δ
B11: 8F7: mouse anti-human CCR8 neutralizing antibody; light chain SEQ ID NO: 33, heavy chain SEQ ID NO: 34 (antibody, V domains shown)
VH: EVQLVESGGRLVQPKRSLKLSCAASGFTFNPYAMYWIRQAPGQGLEWVARIRSKSNNYATYYADSVKDRFTISRDDSQSMLYLQMNNLKTEDTAMYYCVRGHQGTMDYWGQGTSVTVSS
VL: B10 VL with I53T, A69G, L101F, A105G, L111I
modifications: 8F7 VH; 8F7 VL
